# Test results: US20200216522A1 (DENALI THERAPEUTICS, published 2020)
# Residue numbers refer to the chain shown, from its start.
# B1: chimeric IgG clone 1A1 (antibody, V domains shown)
# VH: EVQLQQSGAELVRPGASVRLSCTASGFNIKDSLMHWLKQRPEQGLEWIGWIDPEDGETKYAPKFQDKATITADTSSNTAYLQLSSLTSEDTAIYYCTRRDWEGPWGQGTLVTVSA
# VL: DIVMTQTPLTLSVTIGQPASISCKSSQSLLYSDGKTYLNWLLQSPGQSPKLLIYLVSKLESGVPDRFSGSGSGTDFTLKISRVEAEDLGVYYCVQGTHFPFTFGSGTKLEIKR
# notes: mouse-human chimeric IgG from HEK293; also called anti-Tau 1A1; anti-Tau^1A1
# B2: chimeric IgG clone 1G7 (antibody, V domains shown)
# VH: B1 VH with L11V, R19K, A24T, E89G, T97A
# VL: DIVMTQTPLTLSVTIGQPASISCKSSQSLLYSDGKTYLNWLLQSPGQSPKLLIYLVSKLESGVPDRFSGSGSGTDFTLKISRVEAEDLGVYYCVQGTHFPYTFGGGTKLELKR
# notes: mouse-human chimeric IgG from HEK293
# What was measured:
# Assay in all cases: peptide array
# Peptide_006 = target: T1, Peptide_006 (human)
# T1 peptide: QGGYTMHQDQEGDTD
# Experimental: (§1) Chimeric IgG antibodies were diluted to a concentration of 5 μg/mL in 3% bovine serum albumin in Tris-buffered saline (10 mM Tris, pH 7.5, 150 mM NaCl) supplemented with 0.05% Tween®20 (3% BSA-TBST). Diluted antibodies were allowed to bind to peptides printed onto slides for 2 hours at room temperature as described in the PepStar™ user manual (JPT Technologies). Following extensive washing (5×5 minutes with TBST), slides were incubated with secondary antibodies goat anti-human IgG, Alexa Fluor 568 conjugate, 1 μg/mL in 3% BSA-TBST) for 1 hour at room temperature. After extensive washing, (5×5 minutes with TBST, then 5×5 minutes with ultrapure water), slides were dried overnight and imaged using an Opera Phenix™ system in the 568 nm channel. Images were aligned to peptide array definition files using Galviewer software obtained from JPT Technologies and ImageJ software with control human IgG serving as landmarks.
# (§2) Full-length human Tau (encoded by the microtubule-associated protein Tau isoform 2 gene (MAPT), amino acid sequence NCBI Reference Sequence No. NP_005901.2, SEQ ID NO: 1, variant designation “2N4R”) was divided into 15 amino acid peptides, offset by 5 amino acids (overlapping by 10 amino acids). Peptides were synthesized and covalently attached to silica slides in triplicate with a spot size of 0.5 mm (obtained from JPT Technologies, Berlin, Germany). Antibodies muIgG were diluted to a concentration of 30 μg/mL in 3% bovine serum albumin in Tris-buffered saline (10 mM Tris, pH 7.5, 150 mM NaCl) supplemented with 0.05% Tween® 20 (3% BSA-TBST). Diluted antibodies were allowed to bind to peptides printed onto slides for 2 hours at room temperature as described in the Pepstar™ user manual (JPT Technologies). Following extensive washing (5×5 min TBST), slides were incubated with secondary antibodies (donkey anti-mouse IgG, Alexafluor 647 conjugate, 5 μg/mL in 3% BSA-TBST) for 1 hour at room temperature. After extensive washing, (5×5 minutes TBST, 5×5 minutes ultrapure water), slides were dried under a stream of nitrogen and imaged on the Opera Phenix in the 647 nm channel. Images were aligned to peptide array definition file using Galviewer software obtained from JPT Technologies and ImageJ software with control mouse IgG serving as landmarks.
# Peptide_002 = target: T2, Peptide_002 (human)
# T2 peptide: QEFEVMEDHAGTYGL
# Experimental: as §1, §2
# Peptide_054 = target: T3, Peptide_054 (human)
# T3 peptide: LKHQPGGGKVQIINK
# Experimental: as §1, §2
# Peptide_076 = target: T4, Peptide_076 (human)
# T4 peptide: LTFRENAKAKTDHGA
# Experimental: as §1, §2
# Peptide_027 = target: T5, Peptide_027 (human)
# T5 peptide: SKDGTGSDDKKAKGA
# Experimental: as §1, §2
# Peptide_029 = target: T6, Peptide_029 (human)
# T6 peptide: KAKGADGKTKIATPR
# Experimental: as §1, §2
# Peptide_022 = target: T7, Peptide_022 (human)
# T7 peptide: AGIGDTPSLEDEAAG
# Experimental: as §1, §2
# Peptide_044 = target: T8, Peptide_044 (human)
# T8 peptide: PTPPTREPKKVAVVR
# Experimental: as §1, §2
# Peptide_082 = target: T9, Peptide_082 (human)
# T9 peptide: RHLSNVSSTGSIDMV
# Experimental: as §1, §2
# Peptide_040 = target: T10, Peptide_040 (human)
# T10 peptide: GYSSPGSPGTPGSRS
# Experimental: as §1, §2
# Peptide_051 = target: T11, Peptide_051 (human)
# T11 peptide: PDLKNVKSKIGSTEN
# Experimental: as §1, §2
# Peptide_070 = target: T12, Peptide_070 (human)
# T12 peptide: FKDRVQSKIGSLDNI
# Experimental: as §1, §2
# Peptide_042 = target: T13, Peptide_042 (human)
# T13 peptide: PGSRSRTPSLPTPPT
# Experimental: as §1, §2
# Peptide_043 = target: T14, Peptide_043 (human)
# T14 peptide: RTPSLPTPPTREPKK
# Experimental: as §1, §2
# Peptide_087 = target: T15, Peptide_087 (human)
# T15 peptide: TLADEVSASLAKQGL
# Experimental: as §1, §2
# Peptide_084 = target: T16, Peptide_084 (human)
# T16 peptide: SIDMVDSPQLATLAD
# Experimental: as §1, §2
# Peptide_004 = target: T17, Peptide_004 (human)
# T17 peptide: GTYGLGDRKDQGGYT
# Experimental: as §1, §2
# Peptide_010 = target: T18, Peptide_010 (human)
# T18 peptide: SPLQTPTEDGSEEPG
# Experimental: as §1, §2
# Peptide_023 = target: T19, Peptide_023 (human)
# T19 peptide: TPSLEDEAAGHVTQA
# Experimental: as §1, §2
# Peptide_015 = target: T20, Peptide_015 (human)
# T20 peptide: TAEDVTAPLVDEGAP
# Experimental: as §1, §2
# process-control peptide = target: T21, process-control peptide
# T21 construct: array control, not a Tau peptide
# T21 peptide: GGSGGGSDYKDDDDK
# Experimental: as §1, §2
# Peptide_007 = target: T22, Peptide_007 (human)
# T22 peptide: MHQDQEGDTDAGLKE
# Experimental: as §1, §2
# Peptide_021 = target: T23, Peptide_021 (human)
# T23 peptide: TTAEEAGIGDTPSLE
# Experimental: as §1, §2
# Peptide_056 = target: T24, Peptide_056 (human)
# T24 peptide: QIINKKLDLSNVQSK
# Experimental: as §1, §2
# Peptide_035 = target: T25, Peptide_035 (human)
# T25 peptide: IPAKTPPAPKTPPSS
# Experimental: as §1, §2
# Peptide_085 = target: T26, Peptide_085 (human)
# T26 peptide: DSPQLATLADEVSAS
# Experimental: as §1, §2
# Peptide_003 = target: T27, Peptide_003 (human)
# T27 peptide: MEDHAGTYGLGDRKD
# Experimental: as §1, §2
# Peptide_048 = target: T28, Peptide_048 (human)
# T28 peptide: PSSAKSRLQTAPVPM
# Experimental: as §1, §2
# Peptide_032 = target: T29, Peptide_032 (human)
# T29 peptide: GAAPPGQKGQANATR
# Experimental: as §1, §2
# Peptide_039 = target: T30, Peptide_039 (human)
# T30 peptide: SGDRSGYSSPGSPGT
# Experimental: as §1, §2
# Peptide_064 = target: T31, Peptide_064 (human)
# T31 peptide: SKVTSKCGSLGNIHH
# Experimental: as §1, §2
# Peptide_041 = target: T32, Peptide_041 (human)
# T32 peptide: GSPGTPGSRSRTPSL
# Experimental: as §1, §2
# Peptide_012 = target: T33, Peptide_012 (human)
# T33 peptide: SEEPGSETSDAKSTP
# Experimental: as §1, §2
# Peptide_025 = target: T34, Peptide_025 (human)
# T34 peptide: HVTQARMVSKSKDGT
# Experimental: as §1, §2
# Peptide_077 = target: T35, Peptide_077 (human)
# T35 peptide: NAKAKTDHGAEIVYK
# Experimental: as §1, §2
Binder,binding result (Peptide_006),binding result (Peptide_002),binding result (Peptide_054),binding result (Peptide_076),binding result (Peptide_027),binding result (Peptide_029),binding result (Peptide_022),binding result (Peptide_044),binding result (Peptide_082),binding result (Peptide_040),binding result (Peptide_051),binding result (Peptide_070),binding result (Peptide_042),binding result (Peptide_043),binding result (Peptide_087),binding result (Peptide_084),binding result (Peptide_004),binding result (Peptide_010),binding result (Peptide_023),binding result (Peptide_015),other results
B1,no binding (tested: 5 ug/mL),no binding (tested: 5 ug/mL),no binding (tested: 5 ug/mL),no binding (tested: 5 ug/mL),no binding (tested: 5 ug/mL),no binding (tested: 5 ug/mL),no binding (tested: 5 ug/mL),no binding (tested: 5 ug/mL),no binding (tested: 5 ug/mL),no binding (tested: 5 ug/mL),binds,binds,no binding (tested: 5 ug/mL),no binding (tested: 5 ug/mL),no binding (tested: 5 ug/mL),no binding (tested: 5 ug/mL),no binding (tested: 5 ug/mL),no binding (tested: 5 ug/mL),no binding (tested: 5 ug/mL),no binding (tested: 5 ug/mL),binding result (process-control peptide): no binding (tested: 5 ug/mL); binding result (Peptide_007): no binding (tested: 5 ug/mL); binding result (Peptide_021): no binding (tested: 5 ug/mL); binding result (Peptide_056): no binding (tested: 5 ug/mL); binding result (Peptide_035): no binding (tested: 5 ug/mL); binding result (Peptide_085): no binding (tested: 5 ug/mL); binding result (Peptide_003): no binding (tested: 5 ug/mL); binding result (Peptide_048): no binding (tested: 5 ug/mL); binding result (Peptide_032): no binding (tested: 5 ug/mL); binding result (Peptide_039): no binding (tested: 5 ug/mL); binding result (Peptide_064): no binding (tested: 5 ug/mL); binding result (Peptide_041): no binding (tested: 5 ug/mL); binding result (Peptide_012): no binding (tested: 5 ug/mL); binding result (Peptide_025): no binding (tested: 5 ug/mL); binding result (Peptide_077): no binding (tested: 5 ug/mL)
B2,no binding (tested: 5 ug/mL),no binding (tested: 5 ug/mL),no binding (tested: 5 ug/mL),no binding (tested: 5 ug/mL),no binding (tested: 5 ug/mL),no binding (tested: 5 ug/mL),no binding (tested: 5 ug/mL),no binding (tested: 5 ug/mL),no binding (tested: 5 ug/mL),no binding (tested: 5 ug/mL),binds,binds,no binding (tested: 5 ug/mL),no binding (tested: 5 ug/mL),no binding (tested: 5 ug/mL),no binding (tested: 5 ug/mL),no binding (tested: 5 ug/mL),no binding (tested: 5 ug/mL),no binding (tested: 5 ug/mL),no binding (tested: 5 ug/mL),binding result (process-control peptide): no binding (tested: 5 ug/mL); binding result (Peptide_007): no binding (tested: 5 ug/mL); binding result (Peptide_021): no binding (tested: 5 ug/mL); binding result (Peptide_056): no binding (tested: 5 ug/mL); binding result (Peptide_035): no binding (tested: 5 ug/mL); binding result (Peptide_085): no binding (tested: 5 ug/mL); binding result (Peptide_003): no binding (tested: 5 ug/mL); binding result (Peptide_048): no binding (tested: 5 ug/mL); binding result (Peptide_032): no binding (tested: 5 ug/mL); binding result (Peptide_039): no binding (tested: 5 ug/mL); binding result (Peptide_064): no binding (tested: 5 ug/mL); binding result (Peptide_041): no binding (tested: 5 ug/mL); binding result (Peptide_012): no binding (tested: 5 ug/mL); binding result (Peptide_025): no binding (tested: 5 ug/mL); binding result (Peptide_077): no binding (tested: 5 ug/mL)
